{
  "source": "paper PMC2628428",
  "about": "(Molecular Microbiology, 2008)",
  "molecular_target": "the molecule itself",
  "assay": "cross-linking",
  "data": [
    {"protein": "CetB (natural protein, UniProt Q0P967 1-165, looked up) MSREIFLQEDSLITSKTDLKGKIVYANDDFLKYAGYTMGEVLNKPHNIVRHEEMPKTVFKYLWDYMKEGKEIFAYVKNKTKDNNYYWVFANVTPSIDVNNNIIGYYSVRRMPNKSAISTIESLYSDLLRAEQQQGLNKGVEMLKNFCKDADKTYNELIFSLQEAK", "values": [
      {"measurement": "stoichiometry N", "value": 2}
    ]}
  ]
}
